Consider six molecules from US20200353078A1 (AstraZeneca / MedImmune, published 2020).

The labels stand for the following.
B1: His10/Avi Human IL33-01 (ligand)
chain: MHHHHHHHHHHAAGLNDIFEAQKIEWHEAAIEGRSITGISPITEYLASLSTYNDQSITFALEDESYEIYVEDLKKDEKKDKVLLSYYESQHPSNESGDGVDGKMLMVTLSPTKDFWLHANNKEHSVELHKCEKPLPDQAFFVLHNMHSNCVSFECKTDPGVFIGVKDNHLALIKVDSSENLCTENILFKLSET
B2: His10/Avi Human IL33-11 (ligand)
chain: MHHHHHHHHHHAAGLNDIFEAQKIEWHEAAIEGRSITGISPITEYLASLSTYNDQSITFALEDESYEIYVEDLKKDEKKDKVLLSYYESQHPSNESGDGVDGKMLMVTLSPTKDFWLHANNKEHSVELHKSEKPLPDQAFFVLHNMHSNCVSFECKTDPGVFIGVKDNHLALIKVDSSENLSTENILFKLSET

Experiment [1] addresses T1, ST2 on human umbilical vein endothelial cells (human, UniProt Q01638 19-556).
T1 sequence (looked up): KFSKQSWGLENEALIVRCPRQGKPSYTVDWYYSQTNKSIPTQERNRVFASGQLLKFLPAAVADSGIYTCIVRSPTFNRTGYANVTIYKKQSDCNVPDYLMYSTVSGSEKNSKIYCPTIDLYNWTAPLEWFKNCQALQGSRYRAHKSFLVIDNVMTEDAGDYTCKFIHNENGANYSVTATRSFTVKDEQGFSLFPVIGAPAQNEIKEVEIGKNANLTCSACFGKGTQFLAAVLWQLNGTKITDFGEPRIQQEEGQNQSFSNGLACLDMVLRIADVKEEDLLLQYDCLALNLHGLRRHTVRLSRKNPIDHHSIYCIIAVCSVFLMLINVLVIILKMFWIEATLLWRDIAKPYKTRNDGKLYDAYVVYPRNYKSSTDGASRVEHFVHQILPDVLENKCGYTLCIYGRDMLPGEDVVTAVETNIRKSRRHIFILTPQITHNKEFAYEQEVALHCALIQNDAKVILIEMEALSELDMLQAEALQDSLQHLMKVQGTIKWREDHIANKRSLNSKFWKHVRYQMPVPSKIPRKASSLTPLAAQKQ
Nature of the experiment: cell-based or functional assay.

Another experiment addresses T2, Human ST2 ECD-Flag-his10 (human, UniProt Q01638 19-328).
T2 construct: also called Human ST2 Flag His; FLAG® His-tagged human ST2
T2 sequence: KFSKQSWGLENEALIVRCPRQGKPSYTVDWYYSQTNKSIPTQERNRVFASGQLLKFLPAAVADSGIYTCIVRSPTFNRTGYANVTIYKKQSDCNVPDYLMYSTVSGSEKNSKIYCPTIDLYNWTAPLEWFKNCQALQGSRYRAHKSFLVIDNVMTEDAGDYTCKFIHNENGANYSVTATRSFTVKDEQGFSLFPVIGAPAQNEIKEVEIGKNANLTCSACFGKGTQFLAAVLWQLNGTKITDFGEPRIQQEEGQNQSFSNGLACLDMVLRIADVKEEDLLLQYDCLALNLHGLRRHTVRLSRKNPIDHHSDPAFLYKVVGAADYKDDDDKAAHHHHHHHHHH
Kind of experiment: SPR Biacore T100, 25 C, biotinylated human IL-33 on streptavidin C1 chip, ST2-Flag-His10 as analyte. The method, then:
Fab fragments were generated by papain cleavage from full length IgG1 and purified by SEC. […] Streptavidin was covalently immobilised to a C1 chip surface using standard amine coupling techniques at a concentration of […] in 10 mM Sodium acetate pH 4.5. […] Recombinant, enzymatically biotinylated human IL-33 (produced in-house) was titrated onto the streptavidin chip surface at […] in HBS-EP+ buffer to enable ˜30 RUs of Fab binding at saturation (Rmax). This low level of analyte binding ensured minimal mass transport effects.
The IL-33 Fab was serially diluted from 5 nM to 78 pM in HBS-EP+ buffer and flowed over the chip at 50 μl/min, with 3 minutes association and up to 30 minutes dissociation. Multiple buffer only injections were made under the same conditions to allow for double reference subtraction of the final sensorgram sets, which were analysed using the BiaEval software (version 2.0.1). The chip surface was fully regenerated with pulses of 3M MgCl₂.
The affinity of ST2-Flag-His10 (SEQ. ID no. 650) expressed in HEK-EBNA cells for human IL-33 was determined by BIACORE™ using the same methods described above.
(In SPR one partner is held on a chip, and binding of the other changes the refractive index at the surface.)

Experiment [2] deals with B2. Nature of the experiment: HTRF epitope competition, scFv titrated; competitor DyLight labelled 33v20064 IgG. On the procedure:
(§1) This was followed by the addition of 2.5 microlitres of a solution containing 0.8 nM biotinylated human IL-33-01 combined with 0.75 nM streptavidin cryptate detection (Cisbio International, 610SAKLB) for the human assay or a solution containing 4 nM biotinylated cynomolgus IL-33 combined with 1.5 nM streptavidin cryptate detection (Cisbio International, 610SAKLB) for the cynomolgus assay. All dilutions were performed in assay buffer containing 0.8 M potassium fluoride (VWR, 26820.236) and 0.1% bovine serum albumin (BSA, PAA, K05-013) in Dulbeccos PBS (Invitrogen, 14190185). Assay plates were incubated for 1 hour at room temperature and time resolved fluorescence was read at 620 nm and 665 nm emission wavelengths using an EnVision plate reader (Perkin Elmer). Data were analysed by calculating the 665/620 nm ratio followed by the % Delta F values for each sample. The 665/620 nm ratio was used to correct for sample interference using Equation 1. The % Delta F for each sample was then calculated using Equation 2. The negative control (non-specific binding) was defined by replacing biotinylated IL-33 combined with streptavidin cryptate detection with streptavidin cryptate detection only. The % Delta F values were subsequently used to calculate % specific binding as described in Equation 3.
(§2) Unique scFv were expressed again in bacteria and purified by affinity chromatography (as described in WO01/66754). Purified anti-IL-33 antibody samples were tested for potency of inhibition by competing a dilution series of the purified preparation against DyLight labelled 33v20064 IgG or DyLight labelled 33_640027 IgG for binding to biotinylated His Avi IL33-01, biotinylated His Avi IL33-11 or biotinylated His Avi cynomolgus IL-33. Methods are as described in the previous section.
On the technique in general: TR-FRET usually uses a lanthanide donor and a delayed reading to cut background.

The target in experiment [3] is B1. Described as above. The method, then: as §1, §2
For experiment [4], the target named is T3, His10/Avi Cyno IL-33 (cynomolgus monkey).
T3 construct: also called Cynomolgus 10His Avitag IL-33; biotinylated His Avi cynomolgus IL-33
T3 chain: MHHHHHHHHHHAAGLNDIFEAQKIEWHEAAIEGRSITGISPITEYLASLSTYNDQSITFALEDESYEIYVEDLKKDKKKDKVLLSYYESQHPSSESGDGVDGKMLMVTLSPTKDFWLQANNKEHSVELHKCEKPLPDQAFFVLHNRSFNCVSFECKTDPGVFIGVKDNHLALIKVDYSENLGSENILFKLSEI
Described as above. On the procedure: as §1, §2

For experiment [5], the target named is B2. Kind of experiment: HTRF epitope competition, scFv titrated; competitor DyLight labelled 33_640027 IgG.
For experiment [6], the target named is B1. The description is as above.
In experiment [7] the target is T3, His10/Avi Cyno IL-33. The experiment is described as above.

In the case of B1, the “IC50 (nM) Untreated, HUVEC NFkB translocation assay” value in experiment [1] came to 0.13 nM.

B2: the “IC50 (nM) Untreated, HUVEC NFkB translocation assay” value in experiment [1] came out at 0.49 nM.

B3: Recombinant human IL-33 (construct not named in the example) (ligand, UniProt O95760 112-270, looked up)
chain: SITGISPITEYLASLSTYNDQSITFALEDESYEIYVEDLKKDEKKDKVLLSYYESQHPSNESGDGVDGKMLMVTLSPTKDFWLHANNKEHSVELHKCEKPLPDQAFFVLHNMHSNCVSFECKTDPGVFIGVKDNHLALIKVDSSENLCTENILFKLSET
notes: also called Recombinant, enzymatically biotinylated human IL-33 (produced in-house); IL-33 (200 nM)
The term Kd denotes the concentration at which binding is half-saturated. Read a low Kd as tighter binding. Broadly, the koff is the first-order rate constant of dissociation. As usually defined, the kon is the rate constant with which the complex forms. A high value points to faster complex formation. In the experiment with Human ST2 ECD-Flag-his10, B3 displayed a Kd of 0.0029 nM, a koff of 4.35e-05 s⁻¹ and an on-rate constant (kon) of 1.52e+07 M⁻¹ s⁻¹.

B4: 33_640027 scFv (scFv, V domains shown)
VH: EVQLLESGGDLVQPGGSLRLSCAASGFTFSSYAMSWVRQAPGKGLEWVSAIGGSGGSTYYADSVKGRFTISRDNSKNTLYLQMNSLRAEDTAVYYCARDLWMQLWGGGLRYPFGYWGQGTMVTVSS
VL: LPVLTQPPSVSVSPGQKASITCSGERIGDKYAAWYQQKPGQSPILVIYRDTKRPSGIPERFSGSNSGNTATLTISGTQDMDEADYYCQVWDSSTGVFGGGTKVTVL
notes: Single chain Fv
Broadly, the IC50 is the concentration that gives 50% inhibition. A low value points to higher potency. Consider B4, for which the IC50 in the experiment with His10/Avi Human IL33-11 [2] was determined as 0.6 nM; with His10/Avi Human IL33-01 [3] it was 0.4 nM; with His10/Avi Cyno IL-33 [4], 8.2 nM; in the experiment with His10/Avi Human IL33-11 [5], 2.9 nM; with His10/Avi Human IL33-01 [6], 3.8 nM; in the experiment with His10/Avi Cyno IL-33 [7], 38 nM.

B5: 33v20064 scFv (scFv, V domains shown)
VH: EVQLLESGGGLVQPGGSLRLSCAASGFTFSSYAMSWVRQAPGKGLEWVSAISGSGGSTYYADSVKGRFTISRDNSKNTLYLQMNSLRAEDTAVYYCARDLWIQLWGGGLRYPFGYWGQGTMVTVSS
VL: LPVLTQPPSVSVSPGQKASITCSGERMGDKYAAWYQQKPGQSPILVIYQDTKRPSGIPERFSGSNSGNTATLTISGTQDMDEADYYCQVWDSSTGVFGGGTKVTVL
notes: Single chain Fv
For the molecule B5, the IC50 with His10/Avi Human IL33-11 [2] is 26 nM; in the experiment with His10/Avi Human IL33-01 [3], 12 nM; with His10/Avi Cyno IL-33 [4], 103 nM; with His10/Avi Human IL33-11 [5] it was 1470 nM; in the experiment with His10/Avi Human IL33-01 [6], 1500 nM; with His10/Avi Cyno IL-33 [7], 3430 nM.

B6: 33_640050 scFv (scFv, V domains shown)
VH: EVQLLESGGGLVQPGGSLRLSCAASGFTFSSYAMSWVRQAPGKGLEWVSAISGSGGSTYYADSVKGRFTISRDNSKNTLYLQMNSLRAEDTAVYYCPRHKFMQLWGGGLRYPFGYWGQGTMVTVSS
VL: SYVLTQPPSVSVSPGQTASITCSGERMGDKYAAWYQQKPGQSPVLVIYQDTKRPSGIPERFSGSNSGNTATLTISGTQAMDEADYYCQVWDSSTGVFGGGTKVTVL
notes: Single chain Fv
With B6, the IC50 with His10/Avi Human IL33-11 [2] was 0.4 nM; in the experiment with His10/Avi Human IL33-01 [3], 0.2 nM; in the experiment with His10/Avi Cyno IL-33 [4] it was 1.4 nM; in the experiment with His10/Avi Human IL33-11 [5], 2.4 nM; in the experiment with His10/Avi Human IL33-01 [6] it was 2.5 nM; in the experiment with His10/Avi Cyno IL-33 [7], 4.1 nM.
